Test results taken from FireProtDB (doi:10.1021/bi00416a052).

Conditions: Escherichia coli (strain K12), Thermal, CD, NaCl 0.1 M, reversible: yes, whole UniProt chain shown

B1: Ribonuclease HI wild type, P0A7Y4 (protein)
chain: MLKQVEIFTDGSCLGNPGPGGYGAILRYRGREKTFSAGYTRTTNNRMELMAAIVALEALKEHCEVILSTDSQYVRQGITQWIHNWKKRGWKTADKKPVKNVDLWQRLDAALGQHQIKWEWVKGHAGHPENERCDELARAAAMNPTLEDTGYQVEV
- Tm (pH 3, glycine-HCl 10 mM): 49.8 °C
- Tm (pH 5.5, Sodium acetate 20 mM): 52 °C
